Biological target: T1, IL-10 receptor (IL-10R1 and IL-10R2 receptor chains) on mouse cells (mouse, UniProt Q61727 17-575; Q61190 20-349)
T1 sequence (looked up) 1: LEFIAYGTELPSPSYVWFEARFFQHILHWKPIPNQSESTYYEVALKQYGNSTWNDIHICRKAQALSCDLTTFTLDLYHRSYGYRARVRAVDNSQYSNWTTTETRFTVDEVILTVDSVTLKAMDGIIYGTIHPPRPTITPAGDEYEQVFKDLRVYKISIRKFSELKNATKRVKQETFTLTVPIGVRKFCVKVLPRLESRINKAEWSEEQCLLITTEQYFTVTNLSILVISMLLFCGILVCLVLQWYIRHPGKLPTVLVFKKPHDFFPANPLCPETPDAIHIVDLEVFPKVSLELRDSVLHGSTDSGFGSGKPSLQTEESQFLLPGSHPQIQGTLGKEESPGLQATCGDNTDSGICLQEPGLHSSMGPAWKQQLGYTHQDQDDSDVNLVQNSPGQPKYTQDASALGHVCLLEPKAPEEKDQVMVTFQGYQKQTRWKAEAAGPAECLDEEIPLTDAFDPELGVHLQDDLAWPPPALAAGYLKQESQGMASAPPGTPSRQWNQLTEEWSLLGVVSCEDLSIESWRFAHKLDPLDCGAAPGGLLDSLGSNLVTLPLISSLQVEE
T1 sequence (looked up) 2: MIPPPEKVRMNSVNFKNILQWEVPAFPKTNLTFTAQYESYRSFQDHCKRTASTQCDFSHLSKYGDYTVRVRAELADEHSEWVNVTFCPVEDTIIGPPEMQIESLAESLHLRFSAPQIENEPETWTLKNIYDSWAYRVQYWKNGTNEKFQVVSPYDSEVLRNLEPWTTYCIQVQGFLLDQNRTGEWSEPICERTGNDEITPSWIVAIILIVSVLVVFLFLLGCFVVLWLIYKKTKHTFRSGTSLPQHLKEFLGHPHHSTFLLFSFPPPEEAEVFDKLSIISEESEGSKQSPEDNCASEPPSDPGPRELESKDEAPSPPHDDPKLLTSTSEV
Assay: cell-based or functional assay

B1: Human wild-type IL-10 (wtIL-10) (ligand)
chain: SPGQGTQSENSCTHFPGNLPNMLRDLRDAFSRVKTFFQMKDQLDNLLLKESLLEDFKGYLGCQALSEMIQFYLEEVMPQAENQDPDIKAHVNSLGENLKTLRLRLRRCHRFLPCENKSKAVEQVKNAFNKLQEKGIYKAMSEFDIFINYIEAYMTMKIRN
- EC50, proliferation of mouse mast cell line MC/9: 5 pM
- IC50, inhibition of TNFα production in LPS-stimulated C57BL/6 mouse PBMCs (PBMC + LPS): 0.45 pM
